Results on 19 molecules are retold here after patent US11499162B2, “Plants having increased tolerance to herbicides” (BASF SE, priority 2016, dated 2022).

Changes are numbered by the printed parent chain. In names and notes the source's numbering stands.

The chains are these.
B1: N126S: mutated TriA variant of SEQ ID NO: 2 (protein)
chain: MQTLSIQHGTLVTMDQYRRVLGDSWVHVQDGRIVALGVHAESVPPPADRVIDARGKVVLPGFINAHTHVNQILLRGGPSHGRQLYDWLFNVLYPGQKAMRPEDVAVAVRLYCAEAVRSGITTINDSADSAIYPGNIEAAMAVYGEVGVRVVYARMFFDRMDGRIQGYVDALKARSPQVELCSIMEETAVAKDRITALSDQYHGTAGGRISVWPAPAITPAVTVEGMRWAQAFARDRAVMWTLHMAESDHDERLHWMSPAEYMECYGLLDERLQVAHCVYFDRKDVRLLHRHNVKVASQVVSNAYLGSGVAPVPEMVERGMAVGIGTDDGNCNDSVNMIGDMKFMAHIHRAVHRDADVLTPEKILEMATIDGARSLGMDHEIGSIETGKRADLILLDLRHPQTTPHHHLAATIVFQAYGNEVDTVLIDGNVVMENRRLSFLPPERELAFLEEAQSRATAILQRANMVANPAWRSL
modifications: Pseudomonas
B2: F157A: mutated TriA variant of SEQ ID NO: 2 (protein)
chain: B1 chain with S126N, F157A
modifications: Pseudomonas
B3: A216G: mutated TriA variant of SEQ ID NO: 2 (protein)
chain: B1 chain with S126N, A216G
modifications: Pseudomonas
B4: I217S: mutated TriA variant of SEQ ID NO: 2 (protein)
chain: B1 chain with S126N, I217S
modifications: Pseudomonas
B5: D128S: mutated TriA variant of SEQ ID NO: 2 (protein)
chain: B1 chain with S126N, D128S
modifications: Pseudomonas
B6: M155E: mutated TriA variant of SEQ ID NO: 2 (protein)
chain: B1 chain with S126N, M155E
modifications: Pseudomonas
B7: N70T: mutated TriA variant of SEQ ID NO: 2 (protein)
chain: B1 chain with N70T, S126N
modifications: Pseudomonas
B8: M155G: mutated TriA variant of SEQ ID NO: 2 (protein)
chain: B1 chain with S126N, M155G
modifications: Pseudomonas
B9: L88AY167I: mutated TriA variant of SEQ ID NO: 2 (protein)
chain: B1 chain with L88A, S126N, Y167I
modifications: Pseudomonas
B10: D128N: mutated TriA variant of SEQ ID NO: 2 (protein)
chain: B1 chain with S126N, D128N
modifications: Pseudomonas
B11: A216S: mutated TriA variant of SEQ ID NO: 2 (protein)
chain: B1 chain with S126N, A216S
modifications: Pseudomonas
B12: I217A: mutated TriA variant of SEQ ID NO: 2 (protein)
chain: B1 chain with S126N, I217A
modifications: Pseudomonas
B13: L84VL88AY167I: mutated TriA variant of SEQ ID NO: 2 (protein)
chain: B1 chain with L84V, L88A, S126N, Y167I
modifications: Pseudomonas
B14: M155A: mutated TriA variant of SEQ ID NO: 2 (protein)
chain: B1 chain with S126N, M155A
modifications: Pseudomonas
B15: L841L88AY167I: mutated TriA variant of SEQ ID NO: 2 (protein)
chain: B1 chain with L84I, L88A, S126N, Y167I
modifications: Pseudomonas
B16: F157M: mutated TriA variant of SEQ ID NO: 2 (protein)
chain: B1 chain with S126N, F157M
modifications: Pseudomonas
B17: D128A: mutated TriA variant of SEQ ID NO: 2 (protein)
chain: B1 chain with S126N, D128A
modifications: Pseudomonas
B18: N126D: mutated TriA variant of SEQ ID NO: 2 (protein)
chain: B1 chain with S126D
modifications: Pseudomonas
B19: I217T: mutated TriA variant of SEQ ID NO: 2 (protein)
chain: B1 chain with S126N, I217T
modifications: Pseudomonas

The format of this series is biochemical. The following applies: pH 7.2. The gist of the method:
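E. coli resting cells expressing His-tagged TriA incubated with azines, melamine or atrazine. Enzyme in 25 mM sodium phosphate pH 7.2 at 30 °C, substrate 1–10 nM. Loss of parent and formation of OH-metabolite followed by UPLC-HR-MS; % degradation relative to empty-vector cells.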
For B1, the “Degradation in % of 6-cyclopentyl-N4-(2,3,4,5,6-pentafluorophenyl)-1,3,5-triazine-2,4-diamine” value was found to be 1% and the “Degradation in % of Melamine” value is recorded as 2%.

For B2, the “Degradation in % of 6-cyclopentyl-N4-(2,3,4,5,6-pentafluorophenyl)-1,3,5-triazine-2,4-diamine” value is given as 0% and the “Degradation in % of Melamine” value was found to be 19%.

Consider B3, for which the “Degradation in % of 6-cyclopentyl-N4-(2,3,4,5,6-pentafluorophenyl)-1,3,5-triazine-2,4-diamine” value is 0% and the “Degradation in % of Melamine” value is on record as 64%.

Take B4: the “Degradation in % of 6-cyclopentyl-N4-(2,3,4,5,6-pentafluorophenyl)-1,3,5-triazine-2,4-diamine” value was determined as 3% and the “Degradation in % of Melamine” value came out at 100%.

For B5, the “Degradation in % of 6-cyclopentyl-N4-(2,3,4,5,6-pentafluorophenyl)-1,3,5-triazine-2,4-diamine” value is 0% and the “Degradation in % of Melamine” value was determined as 0%.

Consider B6, for which the “Degradation in % of 6-cyclopentyl-N4-(2,3,4,5,6-pentafluorophenyl)-1,3,5-triazine-2,4-diamine” value is 0% and the “Degradation in % of Melamine” value is recorded as 0%.

As for B7, the “Degradation in % of 6-cyclopentyl-N4-(2,3,4,5,6-pentafluorophenyl)-1,3,5-triazine-2,4-diamine” value amounted to 0% and the “Degradation in % of Melamine” value was 0%.

With B8, the “Degradation in % of 6-cyclopentyl-N4-(2,3,4,5,6-pentafluorophenyl)-1,3,5-triazine-2,4-diamine” value is on record as 0% and the “Degradation in % of Melamine” value is given as 4%.

With B9, the “Degradation in % of 6-cyclopentyl-N4-(2,3,4,5,6-pentafluorophenyl)-1,3,5-triazine-2,4-diamine” value turned out to be 0% and the “Degradation in % of Melamine” value was determined as 2%.

As to B10, the “Degradation in % of 6-cyclopentyl-N4-(2,3,4,5,6-pentafluorophenyl)-1,3,5-triazine-2,4-diamine” value was found to be 2% and the “Degradation in % of Melamine” value amounted to 0%.

For B11, the “Degradation in % of 6-cyclopentyl-N4-(2,3,4,5,6-pentafluorophenyl)-1,3,5-triazine-2,4-diamine” value is 1% and the “Degradation in % of Melamine” value worked out at 45%.

As for B12, the “Degradation in % of 6-cyclopentyl-N4-(2,3,4,5,6-pentafluorophenyl)-1,3,5-triazine-2,4-diamine” value turned out to be 4% and the “Degradation in % of Melamine” value is reported as 100%.

For the molecule B13, the “Degradation in % of 6-cyclopentyl-N4-(2,3,4,5,6-pentafluorophenyl)-1,3,5-triazine-2,4-diamine” value is given as 3% and the “Degradation in % of Melamine” value came to 7%.

For the molecule B14, the “Degradation in % of 6-cyclopentyl-N4-(2,3,4,5,6-pentafluorophenyl)-1,3,5-triazine-2,4-diamine” value amounted to 4% and the “Degradation in % of Melamine” value was found to be 0%.

B15: the “Degradation in % of 6-cyclopentyl-N4-(2,3,4,5,6-pentafluorophenyl)-1,3,5-triazine-2,4-diamine” value is reported as 4% and the “Degradation in % of Melamine” value is recorded as 9%.

Turning to B16, the “Degradation in % of 6-cyclopentyl-N4-(2,3,4,5,6-pentafluorophenyl)-1,3,5-triazine-2,4-diamine” value worked out at 0% and the “Degradation in % of Melamine” value is 17%.

For B17, the “Degradation in % of 6-cyclopentyl-N4-(2,3,4,5,6-pentafluorophenyl)-1,3,5-triazine-2,4-diamine” value was determined as 5% and the “Degradation in % of Melamine” value was found to be 3%.

On to B18, for which the “Degradation in % of 6-cyclopentyl-N4-(2,3,4,5,6-pentafluorophenyl)-1,3,5-triazine-2,4-diamine” value was found to be 0% and the “Degradation in % of Melamine” value turned out to be 0%.

For B19, the “Degradation in % of 6-cyclopentyl-N4-(2,3,4,5,6-pentafluorophenyl)-1,3,5-triazine-2,4-diamine” value is listed as 3% and the “Degradation in % of Melamine” value was found to be 100%.
